According to patent publication US20230110287A1 (SCOUT BIO, published 2023):

B1: felinized anti-NGF monoclonal antibody Fe1 (antibody, V domains shown)
VH: QVQLMESGADLVQPSESLRLTCVASGLSLTNNNVNWVRQAPGKGLEWMGGVWAGGATDYNSALKSRLTITRDTSKNTVFLQMHSLQSEDTATYYCARDGGYSSSTLYAMDAWGQGTTVTVSA
VL: DIEMTQSPLSLSATPGETVSISCRASEDIYNALAWYLQKPGRSPRLLIYNTDTLHTGVPDRFSGSGSGTDFTLKISRVQTEDVGVYFCQHYFHYPRTFGQGTKLELKR
notes: Expressed in CHO cells
B2: caninized anti-NGF monoclonal antibody SCB01 (antibody, V domains shown)
VH: EVTLQESGPGLVKPSQTLSLTCVVSGLSLTNNNVNWVRQRPGRGLEWMGGVWAGGATDYNSALKSRISITRDTAKNQVSLQLSSMTTEDTAVYYCARDGGYSSSTLYAMDAWGQGTLVTVSS
VL: EIVMTQSPASLSLSQEEKVTITCRASEDIYNALAWYQQKPGQAPKLLIYNTDTLHTGVPSRFSGSGSGTDYSFTISSLEPEDVAVYFCQHYFHYPRTFGAGTKVELK

Tests used:
[1] = target: NGF (added at 10 ng/mL to TF-1 cell cultures); experiment: cell-based or functional assay
NGF (added at 10 ng/mL to TF-1 cell cultures), sequence (P01138 122-241): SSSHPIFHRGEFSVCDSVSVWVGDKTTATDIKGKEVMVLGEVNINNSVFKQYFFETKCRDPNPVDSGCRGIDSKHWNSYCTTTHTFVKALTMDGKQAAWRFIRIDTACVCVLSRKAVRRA

mouse (murine) NGF [2] = target: T1, mouse (murine) NGF (mouse, UniProt P01139 122-241, limits assumed); experiment: ELISA on plate-coated murine NGF (0.1 ug/ml), detection with goat anti-feline IgG-HRP, Abs 450
T1 construct: also called muNGF; beta muNGF
T1 sequence (P01139 122-241 limits assumed): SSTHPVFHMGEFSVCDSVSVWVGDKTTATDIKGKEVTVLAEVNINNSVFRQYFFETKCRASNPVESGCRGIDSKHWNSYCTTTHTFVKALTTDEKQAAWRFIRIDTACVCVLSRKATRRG
Description: ELISA plates were coated with 0.1 μg/ml mouse (murine) NGF (muNGF) and blocked with PBS/0.05% Tween 20/1% BSA. muNGF-coated wells were then incubated for 1 hour at room temperature with antibody preparations, diluted in PBS/0.05% Tween 20/1% BSA (100 μl/well). Antibody concentrations ranging from 100 ng/ml to 1.56 ng/ml were used to establish a binding curve. After washing, the plates were incubated with a 1/5,000 dilution of goat anti-feline IgG-HRP in PBS/0.05% Tween 20/1% BSA. Plates were washed with PBS/0.05% Tween 20 and developed by the addition of TMB substrate. Development was stopped by the addition of 2M H₂SO₄, absorbance read at 450 nm and background values were subtracted from the absorbance readings.

mouse (murine) NGF [3] = target: T1, mouse (murine) NGF; experiment: ELISA on murine NGF, Abs 450

Binder	IC50 (read off the curve), NGF-driven TF-1 cell proliferation [1] [µg/mL]	binding result (mouse (murine) NGF [2])	binding result (mouse (murine) NGF [3])
B1	~0.05	binds	
B2			binds
